Laboratory results from paper PMC2752837.

Assays:
Assay in all cases: purified protein
Conditions in all cases: 50 mM CHES pH 9.5, 10 mM DTT, 37 °C
[1] = tested on: N=C(N)NCCCC[C@H](N)C(=O)O
[2] = tested on: N=C(N)NOCC[C@H](N)C(=O)O
[3] = tested on: CCOC(=O)[C@H](CCCNC(=N)N)NC(=O)c1ccccc1
[4] = tested on: N=C(NO)NCCC[C@H](N)C(=O)O
[5] = tested on: N=C(N)NCCC[C@H](N)C(=O)NO

## truncated PAD (peptidylarginine deiminase, 43-amino acid N-terminal deletion) (Porphyromonas gingivalis W83)
[1]
  Km: (4.7 ± 0.8)×10^3 µM
  kcat: 0.11 s⁻¹
  kcat/Km: 24 M⁻¹ s⁻¹
[2]
  Km: (6 ± 1)×10^3 µM
  kcat: 0.0052 s⁻¹
  kcat/Km: 0.93 M⁻¹ s⁻¹
[3]
  Km: (18 ± 1)×10^3 µM
  kcat/Km: 0.99 M⁻¹ s⁻¹
[4]
  Km: (1.5 ± 0.5)×10^3 µM
  kcat: 0.0046 s⁻¹
  kcat/Km: 3 M⁻¹ s⁻¹
[5]
  Km: (6.9 ± 0.5)×10^3 µM
  kcat: 0.15 s⁻¹
